This is an account of results in the nanobody polyreactivity screen of Harvey et al. (2022).

The data set can be described thus: yeast display, Sf9 membrane polyspecificity reagent, FACS + sequencing; frameworks hold sequencing errors. The procedure, abridged: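 Nanobodies came from a synthetic yeast display library in Saccharomyces cerevisiae BJ5465, induced with galactose for 36–48 hours and stained for 1 hour at 4 °C with 10% biotinylated, detergent-solubilized Sf9 membrane reagent. Cells were enriched on streptavidin microbeads and then FACS-sorted, with low and high (top ~1%) gates set on anti-HA fluorescence for expression and streptavidin fluorescence for reagent binding. Each polyreactivity label reflects the gate a clone came from. Genes were amplified by colony PCR, sequenced by MiSeq 2 × 250 and filtered by CDR length.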
In the case of “QVQLVESGGGLVQAGGSLRLSCAASGRIFVYNAMGWYRQAPGKERELVAGINGSGGSTYYAASVKGRFRISRDHAKNSVYLQMNSLKPEDTAGYYCNAWISYGYFIFDYWGQGTQVTVSS”, the “polyreactivity (PSR sort gate)” value was “high polyreactivity”.

As for “QVQLVESGGGLVQAGGSLRLSCAASGRIFVYNAMGWYRQAPGKERELVASISWSGDSTYADSVKGRFTISRDNAKNTVYLQMNSLKPEDTAVYYCAADNGSKEFDYWGQGTQVTVSS”, the “polyreactivity (PSR sort gate)” value is on record as “low polyreactivity”. On to “QVQLVESGGGLVQAGGSLRLSCAASGRIFVYYAMGWYRPAPGKERELVATITETGGSTYYADSVKGRFTISRDNAKNTVYLQMNSLKPEDSAVYYCNADYWGTYGWDWYWYVYWGQGTQVTVSS”, for which the “polyreactivity (PSR sort gate)” value is listed as “low polyreactivity”. For the sequence “QVQLVESGGGLVQAGGSLRLSCAASGRIFVYYAMGWYRPAPWKERELVAVITSGGITYYADSVKGRFTISRDNAKNTVYLQMNSLKPEDTAVYYCAARGHQYDPGSSGKKYYYWGQGTQVTVSS”, the “polyreactivity (PSR sort gate)” value is reported as “high polyreactivity”.

Regarding “QVQLVESGGGLVQAGGSLRLSCAASGRIFVYYAMGWYRQAPGKERELVAAISSGGDRTYYADSVKGRFTISRDNAKNTVYLQMNCLKPEDTAVYYCAKVYSTVKRYHWVGSRYDYWGQGTQVTVSS”, the “polyreactivity (PSR sort gate)” value is given as “high polyreactivity”. As to “QVQLVESGGGLVQAGGSLRLSCAASGRIFVYYAMGWYRQAPGKERELVASISYSGASTYYADSVKGRFTISRDNAKNTVYLQMNSLKPEDTAVYYCATDVRGVDGEDDYWGQGTQVTVSS”, the “polyreactivity (PSR sort gate)” value is “low polyreactivity”. For the sequence “QVQLVESGGGLVQAGGSLRLSCAASGRIFWDNAMGWYRQAPGKERELVAAISGSGGNTYYADSVKGRFTISRDNAKNTVYLQMNSLKPEDTAVYYCNAYGHYTKRYRYGGWFDYWGQGTQVTVSS”, the “polyreactivity (PSR sort gate)” value is given as “low polyreactivity”. The entry for “QVQLVESGGGLVQAGGSLRLSCAASGRIFWDNAMGWYRQAPGKERELVAAITFSGGSTYYADSVKGRFTISRDNAKNTVYLQMNSLKPEDTAVYYCAKGEWVYWRPWYEYWGQGTQVTVSS” is “low polyreactivity”; for “QVQLVESGGGLVQAGGSLRLSCAASGRIFWDYAMGWYRQAPGKERELVAVITFSGDSTYYADSVKGRFTISRDNAKHTVYIQMNSLKPEDTAVYYCAAARAIRQFWYVATFEYWGQGTLVTVSS” it is “low polyreactivity”. The result for “QVQLVESGGGLVQAGGSLRLSCAASGRIFWEYAMGWYRQAPGKERELVAAITWRVGSTYYADSVKGRFTISRDNAKNTVYLQMNSLKPEDTAVYYCAAARYLSIYNYWGQGTQVTVSS” reads “low polyreactivity”; that for “QVQLVESGGGLVQAGGSLRLSCAASGRIFWGNAMGWYRQAPGKERELVAAITSGDGTNYADSVKGRFTISRDNAKNTVYLQMNSLKPEDTAVYYCSYYYWGQGTQVTVSS”, “low polyreactivity”; that for “QVQLVESGGGLVQAGGSLRLSCAASGRIFWGYAMGWYRQAPGKERELVAGITTGGSTKYADSVKGRFTISRDNAKNTVYLQMNSLKPEDTAVYYCAATGKWYHFYHYGYWGQGTQVTVSS”, “low polyreactivity”. Regarding “QVQLVESGGGLVQAGGSLRLSCAASGRIFWGYAMGWYRQAPGKERELVAGITTGGSTKYADSVKGRFTISRDNAKNTVYLQMNSLKPVDTAVYYCAADDQYGYVYYAFWGYDYWGQGTQVTVSS”, the “polyreactivity (PSR sort gate)” value is recorded as “low polyreactivity”. The entry for “QVQLVESGGGLVQAGGSLRLSCAASGRIFWGYAMGWYRQAPGKEREVVAAISWSGGSTYYADSVKGRFTISRDNAKNTVYLQMNSLKPEDTAVYYCAALRFQSYNYWGQGTQVTVSS” is “high polyreactivity”; for “QVQLVESGGGLVQAGGSLRLSCAASGRIFWINAMGWYRQAPGKERELVAAISSGGGTHYADSVKGRFTISRDNAKNTVYLQMNSLKPEDTAVSYCARRYQRKKPVFPHYQGAYDYWGQGTQVTVSS” it is “low polyreactivity”. On to “QVQLVESGGGLVQAGGSLRLSCAASGRIFWNYAMGWYREAPGKERELVASINWSGGSTYSADSVKGRFTISRDNAKNTVYLQMNSLKPEDTAVYYCNQDGRVYLDHDYWGQGTQVTVSS”, for which the “polyreactivity (PSR sort gate)” value is listed as “low polyreactivity”. Consider “QVQLVESGGGLVQAGGSLRLSCAASGRIFWRNTMGWYRQAPGKERELVAAITRTGGSTYYADSVKGRFTISRDNAKNTVYLQMNSLKPEDTAVYYCAVYARWYGYGYGYWGQGTQVTVSS”, for which the “polyreactivity (PSR sort gate)” value is listed as “high polyreactivity”. The result for “QVQLVESGGGLVQAGGSLRLSCAASGRIFWSNAMGWYRQAPGKERELVAAITWRGGSTYADSVKGRFTISRDNAKNTVYLQMNSLKPEDTAVYYCAASPSGWRYDYWGQGTQVTVSS” reads “high polyreactivity”; that for “QVQLVESGGGLVQAGGSLRLSCAASGRIFWSYAMGWYRQAPGKERELVAAIRSGGTTDYADAVKGRFTISRDNAKYTVYLQMNSLKPEDTADYYCNREYRGAINYIYYYWGQGTQVTVSS”, “low polyreactivity”. The entry for “QVQLVESGGGLVQAGGSLRLSCAASGRIFWVYAMGWYRQAPGKERELVAAIDWSDGITYYADSVKGRFTISRDNAKNTVYLQMNSLKPEDTAVYYCAAESVIYQTYNYWGQGTQVTVSS” is “high polyreactivity”. The entry for “QVQLVESGGGLVQAGGSLRLSCAASGRIFWVYTMGWYRQAPGKERELVAAITSADSTNYADSVKGRFTISRDNAKNTVYLQMNSLKAEDTAVYYCAARLARDQVREWDERYYYWGQGTQVTVSS” is “low polyreactivity”; for “QVQLVESGGGLVQAGGSLRLSCAASGRIFWVYVMGWYRQAPGKERELVADITSIGGSTYYADSVKGRFTISRDNAKNTVDLQMNSLKPEDTAVYYCAAARRPTYCPVYPYFGYEYWGQGTQVTVSS” it is “low polyreactivity”.

Consider “QVQLVESGGGLVQAGGSLRLSCAASGRIFWWYAMGWYRQAPGKERELVAVIDDSGGITYYADSVKGRFTISRDNAKHTVYLQMNSLKPEDTAVYYCARNVNAQKVLGGFDSWGQGTQVTVSS”, for which the “polyreactivity (PSR sort gate)” value was “low polyreactivity”. The entry for “QVQLVESGGGLVQAGGSLRLSCAASGRIFWWYVMGWYRQAPGKERELVAAITRSGVSTYYADSVKGRFTLSRDNAKNTVYLQINSLKPEDTAVYYCNVGPWPRSYAHRGYWGQVTQVTVSS” is “high polyreactivity”; for “QVQLVESGGGLVQAGGSLRLSCAASGRIFWYNAMGWYRQAPGKERELVAAISSGGSTSYADSVKGRFTISRDNAKNTVYLQMNSLKPEDTAVYYCAKDDERKQGQYPPYDSWGQGTQVTVSS” it is “low polyreactivity”; for “QVQLVESGGGLVQAGGSLRLSCAASGRIFWYVLGWYRQAPGNERELVATITSSGGSSYYADSVKGRFTISRDNAKNTVYLQMNSLKPEDTAVNYCAVDLQTLGADRIITVYVGEDYWGQGTQVTVSS” it is “low polyreactivity”. In the case of “QVQLVESGGGLVQAGGSLRLSCAASGRIFWYYAMGWYRPAPGKERELVATISYGGGNTYYADSVKGRFTISRDNAKNTVYLQMNSLKPEDTAVYYCARVPYAYLPYKPFQQYSYDYWGQGTQVTVSS”, the “polyreactivity (PSR sort gate)” value is reported as “high polyreactivity”.

“QVQLVESGGGLVQAGGSLRLSCAASGRIFWYYAMGWYRQAPGKERELVAAITSGGSTNYADSVKGRFTISRDNEKNTVYLQMNSLKQEDTAVYYCNARWPYSGMNYWGQGTQVTVSS”: the “polyreactivity (PSR sort gate)” value is “high polyreactivity”. As to “QVQLVESGGGLVQAGGSLRLSCAASGRIFWYYAMGWYRQAPGKERELVATISYVGGNTYYADSVKGRFTISRDNAKNTVYLQMNSLKPDDTAVYYCARVPYAYLPYKPFQQYSYDYWGQGTQVTVSS”, the “polyreactivity (PSR sort gate)” value is “high polyreactivity”.

As for “QVQLVESGGGLVQAGGSLRLSCAASGRIFWYYPMGGYRQAPGKEREYVATINTSGGSTYYADSVKGRFTISRDNAKNTVYLQMNRLKPEDTAVYYCNAAYRFYRTEYYSWGQGTQVTVSS”, the “polyreactivity (PSR sort gate)” value was “low polyreactivity”.
